Assay [1] has as its target T1, Oregon Green 488 maleimide-modified BR (OG488-BR) (human, Oregon Green 488 maleimide on the added N-terminal Cys).
T1 construct: also called fluorescently labeled FVBR
T1 peptide: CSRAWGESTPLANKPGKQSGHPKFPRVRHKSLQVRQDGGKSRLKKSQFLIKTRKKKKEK
Put plainly: fluorescence anisotropy; FV-810 titrated into 20 nM OG488-BR with 50 uM PCPS, 25 C. Here is the method: (§1) Control experiments were performed by titrating FV-810 into buffer containing 10 mM EDTA (X) or by titrating rFVa (▴).
(§2) Steady-state fluorescence anisotropy was measured at 25° C. in a PTI Quanta-Master™ fluorescence spectrophotometer (Photon Technology International, Birmingham, N.J.) using excitation and emission wavelengths of 480 and 520 nm, respectively, with long-pass filters (KV500, CVI Melles Griot) in the emission beam.

Assay [2] concerns the target T1, Oregon Green 488 maleimide-modified BR …. Put plainly: fluorescence anisotropy; FV-810 titrated into 40 nM OG488-BR with 50 uM PCPS, 25 C. The procedure:
as §1, §2

The target is the same in assay [3]. Put plainly: fluorescence anisotropy; buffer-pretreated FV-810 titrated into 30 nM OG488-BR with 50 uM PCPS. The procedure:
(§3) FV-810, FV-810^R709Q (▴), FV-810^R1545Q (♦), and FV-810^QQ (▪) were pretreated with buffer (FIG. 14A) or thrombin (FIG. 14B).
as §2
(In general: Fluorescence polarisation rises when a labelled molecule tumbles more slowly, as on binding a larger partner.)

For assay [4] the target is unchanged. The experiment in a line: fluorescence anisotropy; FVDT titrated into fluorescently labeled FVBR (probe concentration not given).
The target in assay [5] is T2, TFPI C-terminal tail peptide.
T2 construct: The limits are therefore uncertain; also called TFPI peptide
T2 peptide: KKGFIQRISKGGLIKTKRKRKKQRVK
The experiment in a line: fluorescence anisotropy; FVDT titrated into the TFPI peptide (label and probe concentration not stated).

Assay [6] has as its target T3, Fluorescently-labeled, active site-blocked FXa (UniProt P00742 41-179; P00742 235-488, fluorescently-labeled, active site-blocked (label and blocker not named)).
T3 construct: also called fluorescently labeled FXa
Put plainly: fluorescence anisotropy; FVDT titrated into fluorescently labeled, active site-blocked FXa on PCPS liposomes, buffer only (no FVBR); concentration of labeled FXa not given.

In assay [7] the target is T1, Oregon Green 488 maleimide-modified BR …. The experiment in a line: fluorescence anisotropy; buffer-pretreated FV-810 QQ titrated into 30 nM OG488-BR with 50 uM PCPS. Here is the method:
as §3, §2

For assay [8] the target is unchanged. The experiment in a line: fluorescence anisotropy; thrombin-pretreated, hirudin-quenched FV-810 QQ titrated into 30 nM OG488-BR with 50 uM PCPS. The procedure:
as §3, §2

This note sets out measurements from patent US20160222085A1 (CHILDREN S HOSPITAL OF PHILADELPHIA, published 2016).

Usually EC50 (read off the curve) stands for the concentration that produces a half-maximal response.

T3 sequence (P00742 41-179 limits assumed, chain 1 of 2): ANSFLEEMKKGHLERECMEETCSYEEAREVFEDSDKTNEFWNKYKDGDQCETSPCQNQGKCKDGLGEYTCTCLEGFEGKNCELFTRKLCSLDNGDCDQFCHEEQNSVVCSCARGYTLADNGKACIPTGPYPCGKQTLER
T3 sequence (P00742 235-488 limits assumed, chain 2 of 2): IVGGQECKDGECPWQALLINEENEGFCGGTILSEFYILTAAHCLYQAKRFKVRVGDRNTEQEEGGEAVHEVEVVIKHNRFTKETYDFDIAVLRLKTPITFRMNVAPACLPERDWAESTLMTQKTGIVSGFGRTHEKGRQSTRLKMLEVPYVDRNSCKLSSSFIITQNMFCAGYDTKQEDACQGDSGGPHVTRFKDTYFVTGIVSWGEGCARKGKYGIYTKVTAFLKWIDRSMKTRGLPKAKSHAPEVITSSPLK

B1: FV-810 (FV-DT), Factor V with amino acids 811-1491 deleted from the B-domain (other, human, UniProt P12259 29-838, looked up)
chain: AQLRQFYVAAQGISWSYRPEPTNSSLNLSVTSFKKIVYREYEPYFKKEKPQSTISGLLGPTLYAEVGDIIKVHFKNKADKPLSIHPQGIRYSKLSEGASYLDHTFPAEKMDDAVAPGREYTYEWSISEDSGPTHDDPPCLTHIYYSHENLIEDFNSGLIGPLLICKKGTLTEGGTQKTFDKQIVLLFAVFDESKSWSQSSSLMYTVNGYVNGTMPDITVCAHDHISWHLLGMSSGPELFSIHFNGQVLEQNHHKVSAITLVSATSTTANMTVGPEGKWIISSLTPKHLQAGMQAYIDIKNCPKKTRNLKKITREQRRHMKRWEYFIAAEEVIWDYAPVIPANMDKKYRSQHLDNFSNQIGKHYKKVMYTQYEDESFTKHTVNPNMKEDGILGPIIRAQVRDTLKIVFKNMASRPYSIYPHGVTFSPYEDEVNSSFTSGRNNTMIRAVQPGETYTYKWNILEFDEPTENDAQCLTRPYYSDVDIMRDIASGLIGLLLICKSRSLDRRGIQRAADIEQQAVFAVFDENKSWYLEDNINKFCENPDEVKRDDPKFYESNIMSTINGYVPESITTLGFCFDDTVQWHFCSVGTQNEILTIHFTGHSFIYGKRHEDTLTLFPMRGESVTVTMDNVGTWMLTSMNSSPRSKKLRLKFRDVKCIPDDDEDSYEIFEPPESTVMATRKMHDRLEPEDEESDADYDYQNRLAAALGIRSFRNSSLNQEEEEFNLTALALENGTEFVSSNTDIIVGSNYSSPSNISKFTVNNLAEPQKAPSHQQATTAGSPLRHLIGKNSVLNSSTAEHSSPYSEDPIEDTDYIEIIPKEEVQSSEDDYAEIDYVPYDDPYKTDVRTNINSSRDPDNIAAWYLRSNNGNRRNYYIAAEEISWDYSEFVQRETDIEDSDDIPEDTTYKKVVFRKYLDSTFTKRDPRGEYEEHLGILGPIIRAEVDDVIQVRFKNLASRPYSLHAHGLSYEKSSEGKTYEDDSPEWFKEDNAVQPNSSYTYVWHATERSGPESPGSACRAWAYYSAVNPEKDIHSGLIGPLLICQKGILHKDSNMPMDMREFVLLFMTFDEKKSWYYEKKSRSSWRLTSSEMKKSHEFHAINGMIYSLPGLKMYEQEWVRLHLLNIGGSQDIHVVHFHGQTLLENGNKQHQLGVWPLLPGSFKTLEMKASKPGWWLLNTEVGENQRAGMQTPFLIMDRDCRMPMGLSTGIISDSQIKASEFLGYWEPRLARLNNGGSYNAWSVEKLAAEFASKPWIQVDMQKEVIITGIQTQGAKHYLKSCYTTEFYVAYSSNQINWQIFKGNSTRNVMYFNGNSDASTIKENQFDPPIVARYIRISPTRAYNRPTLRLELQGCEVNGCSTPLGMENGKIENKQITASSFKKSWWGDYWEPFRARLNAQGRVNAWQAKANNNKQWLEIDLLKIKKITAIITQGCKSLSSEMYVKSYTIHYSEQGVEWKPYRLKSSMVDKIFEGNTNTKGHVKNFFNPPIISRFIRVIPKTWNQSIALRLELFGCDIY
notes: range 1-810;range 1492-2196; Single-chain cofactor-like variant; All residue numbers count on mature Factor V (add 28 for the precursor)
In the case of B1, the concentration giving a half-maximal response (EC50 (read off the curve)) was about 8 nM in assay [1]; about 10 nM in assay [2]; 10 to 15 nM in assay [3]; 10 to 15 nM in assay [4]; about 10 nM in assay [5]; 6 to 8 nM in assay [6].

B2: FV-810^QQ (other, human, UniProt P12259 29-838, looked up)
chain: AQLRQFYVAAQGISWSYRPEPTNSSLNLSVTSFKKIVYREYEPYFKKEKPQSTISGLLGPTLYAEVGDIIKVHFKNKADKPLSIHPQGIRYSKLSEGASYLDHTFPAEKMDDAVAPGREYTYEWSISEDSGPTHDDPPCLTHIYYSHENLIEDFNSGLIGPLLICKKGTLTEGGTQKTFDKQIVLLFAVFDESKSWSQSSSLMYTVNGYVNGTMPDITVCAHDHISWHLLGMSSGPELFSIHFNGQVLEQNHHKVSAITLVSATSTTANMTVGPEGKWIISSLTPKHLQAGMQAYIDIKNCPKKTRNLKKITREQRRHMKRWEYFIAAEEVIWDYAPVIPANMDKKYRSQHLDNFSNQIGKHYKKVMYTQYEDESFTKHTVNPNMKEDGILGPIIRAQVRDTLKIVFKNMASRPYSIYPHGVTFSPYEDEVNSSFTSGRNNTMIRAVQPGETYTYKWNILEFDEPTENDAQCLTRPYYSDVDIMRDIASGLIGLLLICKSRSLDRRGIQRAADIEQQAVFAVFDENKSWYLEDNINKFCENPDEVKRDDPKFYESNIMSTINGYVPESITTLGFCFDDTVQWHFCSVGTQNEILTIHFTGHSFIYGKRHEDTLTLFPMRGESVTVTMDNVGTWMLTSMNSSPRSKKLRLKFRDVKCIPDDDEDSYEIFEPPESTVMATRKMHDRLEPEDEESDADYDYQNRLAAALGIQSFRNSSLNQEEEEFNLTALALENGTEFVSSNTDIIVGSNYSSPSNISKFTVNNLAEPQKAPSHQQATTAGSPLRHLIGKNSVLNSSTAEHSSPYSEDPIEDTDYIEIIPKEEVQSSEDDYAEIDYVPYDDPYKTDVRTNINSSRDPDNIAAWYLQSNNGNRRNYYIAAEEISWDYSEFVQRETDIEDSDDIPEDTTYKKVVFRKYLDSTFTKRDPRGEYEEHLGILGPIIRAEVDDVIQVRFKNLASRPYSLHAHGLSYEKSSEGKTYEDDSPEWFKEDNAVQPNSSYTYVWHATERSGPESPGSACRAWAYYSAVNPEKDIHSGLIGPLLICQKGILHKDSNMPMDMREFVLLFMTFDEKKSWYYEKKSRSSWRLTSSEMKKSHEFHAINGMIYSLPGLKMYEQEWVRLHLLNIGGSQDIHVVHFHGQTLLENGNKQHQLGVWPLLPGSFKTLEMKASKPGWWLLNTEVGENQRAGMQTPFLIMDRDCRMPMGLSTGIISDSQIKASEFLGYWEPRLARLNNGGSYNAWSVEKLAAEFASKPWIQVDMQKEVIITGIQTQGAKHYLKSCYTTEFYVAYSSNQINWQIFKGNSTRNVMYFNGNSDASTIKENQFDPPIVARYIRISPTRAYNRPTLRLELQGCEVNGCSTPLGMENGKIENKQITASSFKKSWWGDYWEPFRARLNAQGRVNAWQAKANNNKQWLEIDLLKIKKITAIITQGCKSLSSEMYVKSYTIHYSEQGVEWKPYRLKSSMVDKIFEGNTNTKGHVKNFFNPPIISRFIRVIPKTWNQSIALRLELFGCDIY
notes: range 1-810;range 1492-2196; Both thrombin sites (Arg709 and Arg1545) changed to Gln; The same molecule is used for the thrombin-pretreated sample, since both cleavage sites are removed; the assay field says where thrombin pretreatment was used
Turning to B2, the concentration giving a half-maximal response (EC50 (read off the curve)) in assay [7] was about 9 nM; in assay [8], 10 to 15 nM.
